This passage reports EC50 results from PMC12055985.

This test concerns the target gH/gL expressed on the surface of CHO-K1 cells (UniProt P89445). In words: ELISA.

gH/gL expressed on the surface of CHO-K1 cells, sequence (P89445 19-838, chain 1 of 2): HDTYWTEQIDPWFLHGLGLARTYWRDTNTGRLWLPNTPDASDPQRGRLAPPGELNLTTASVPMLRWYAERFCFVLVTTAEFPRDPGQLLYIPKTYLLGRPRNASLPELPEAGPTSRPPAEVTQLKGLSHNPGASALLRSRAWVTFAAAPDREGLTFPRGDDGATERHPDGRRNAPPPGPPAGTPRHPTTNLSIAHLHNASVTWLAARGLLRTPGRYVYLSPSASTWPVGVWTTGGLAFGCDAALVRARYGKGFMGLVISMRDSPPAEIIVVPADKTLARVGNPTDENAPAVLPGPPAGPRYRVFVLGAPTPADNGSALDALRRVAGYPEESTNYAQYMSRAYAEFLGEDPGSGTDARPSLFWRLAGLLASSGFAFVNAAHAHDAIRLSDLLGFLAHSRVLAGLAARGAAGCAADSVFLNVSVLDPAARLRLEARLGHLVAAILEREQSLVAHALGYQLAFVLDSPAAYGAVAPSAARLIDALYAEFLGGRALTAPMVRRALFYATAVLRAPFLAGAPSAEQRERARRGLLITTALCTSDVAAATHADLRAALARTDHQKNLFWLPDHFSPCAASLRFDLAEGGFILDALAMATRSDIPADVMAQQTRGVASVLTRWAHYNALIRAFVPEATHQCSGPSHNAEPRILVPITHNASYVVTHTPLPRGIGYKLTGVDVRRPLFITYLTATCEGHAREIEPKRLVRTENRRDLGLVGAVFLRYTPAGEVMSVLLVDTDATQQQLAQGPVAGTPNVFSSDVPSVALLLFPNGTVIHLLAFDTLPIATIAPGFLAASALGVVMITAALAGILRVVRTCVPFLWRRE
gH/gL expressed on the surface of CHO-K1 cells, sequence (P28278 17-224, chain 2 of 2, further chain): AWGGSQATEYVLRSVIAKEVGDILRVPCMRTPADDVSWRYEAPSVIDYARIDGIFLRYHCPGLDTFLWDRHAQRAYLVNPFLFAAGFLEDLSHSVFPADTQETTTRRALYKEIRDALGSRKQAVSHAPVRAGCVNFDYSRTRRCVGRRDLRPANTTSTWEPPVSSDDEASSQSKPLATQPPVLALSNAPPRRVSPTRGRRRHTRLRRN

“HSV-2 gD (aa1-275) with C-terminal His tag (domain or fragment)”: the EC50 – broadly, the concentration needed to bring the measured effect to its halfway point – worked out at 1280 nM.
